Consider 4 molecules from patent EP3574020B1 (The University of British Columbia, dated 2024).

Experiment [1] has as its target T1, cyclo(CGHHQKG) cyclic peptide, conjugated to BSA (also: conjugated to BSA, site not given here).
T1 construct: BSA is the carrier used for screening; also called cyclopeptide; Cyclo-BSA
T1 peptide: cyclo(CGHHQKG)
The experiment is described as follows: SPR; immobilized antibody pre-exposed to the cyclic peptide.

Experiment [2] addresses T1, cyclo(CGHHQKG) cyclic peptide, …. The experiment is described as follows: single cycle Biacore analysis.
Experiment [3] concerns the target T2, commercially-prepared stable A-beta42 Oligomers (SynAging) (human).
T2 construct: Bought oligomer preparation; also called AbO; SynAging AbO
The experiment is described as follows: ProteOn biosensor; antibody captured with anti-mouse IgG or amine-coupled, AbO dilutions injected.

For experiment [4], the target named is T1, cyclo(CGHHQKG) cyclic peptide, …. In words: ProteOn biosensor; antibody amine-coupled to GLH chip, cyclo-BSA 9 nM to 111 pM.

T2 sequence (peptide, as listed by the source): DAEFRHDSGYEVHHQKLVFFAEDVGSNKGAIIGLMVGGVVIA

B1: Humanized antibody of 301-17 (VH2 Vk5), human IgG4 (S241P hinge variant) / kappa (antibody, V domains shown)
VH: QVQLVQSGAEVKKPGASVKMSCKASGYSFTSYWINWVKQRPGQGLEWIGDVHPGRGVSTYNAKFKSRATLTLDTSISTAYMELSSLRSEDTAVYYCSRSHGNTYWFFDVWGQGTTVTVSS
VL: DVLMTQSPLSLPVTLGQPASISCRSSQSIVHSNGNTYLEWYQQRPGQSPRLLIYKVSNRFSGVPDRFSGSGSGTDFTLKISRVEAEDVGVYYCFQGSHVPFTFGQGTKLEIKR
notes: also called hu301-17
B1: the binding result in experiment [1] is “binds”.

B2: Chimeric 301-17 antibody (VH0 Vk0), mouse variable regions on human IgG4 / kappa (antibody)
heavy: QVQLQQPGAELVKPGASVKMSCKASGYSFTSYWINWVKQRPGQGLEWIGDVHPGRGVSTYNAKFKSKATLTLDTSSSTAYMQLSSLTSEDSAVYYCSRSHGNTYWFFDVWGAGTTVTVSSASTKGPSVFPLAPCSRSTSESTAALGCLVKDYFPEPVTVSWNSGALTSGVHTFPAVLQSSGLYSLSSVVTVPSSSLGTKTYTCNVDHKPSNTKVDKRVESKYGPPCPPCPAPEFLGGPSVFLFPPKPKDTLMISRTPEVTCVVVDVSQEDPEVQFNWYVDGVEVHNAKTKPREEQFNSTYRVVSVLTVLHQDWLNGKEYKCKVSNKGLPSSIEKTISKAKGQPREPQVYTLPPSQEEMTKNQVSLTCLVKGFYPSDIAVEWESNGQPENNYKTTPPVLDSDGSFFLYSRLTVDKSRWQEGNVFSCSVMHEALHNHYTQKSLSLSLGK
light: DVLMTQTPLSLPVSLGDQASISCRSSQSIVHSNGNTYLEWYLQKPGQSPKLLIYKVSNRFSGVPDRFSGSGSGTDFTLKISRVEAEDLGVYYCFQGSHVPFTFGSGTKLEIKRTVAAPSVFIFPPSDEQLKSGTASVVCLLNNFYPREAKVQWKVDNALQSGNSQESVTEQDSKDSTYSLSSTLTLSKADYEKHKVYACEVTHQGLSSPVTKSFNRGEC
notes: also called V0H0 and V0k0
Molecule B2 registered a Kd in experiment [2] of about 0.02 nM.

B3: 301-17 mouse monoclonal antibody, hybridoma-purified IgG3 (antibody, V domains shown)
VH: QVQLQQPGAELVKPGASVKMSCKASGYSFTSYWINWVKQRPGQGLEWIGDVHPGRGVSTYNAKFKSKATLTLDTSSSTAYMQLSSLTSEDSAVYYCSRSHGNTYWFFDVWGAGTTVTVSSATTTAPS
VL: DVLMTQTPLSLPVSLGDQASISCRSSQSIVHSNGNTYLEWYLQKPGQSPKLLIYKVSNRFSGVPDRFSGSGSGTDFTLKISRVEAEDLGVYYCFQGSHVPFTFGSGTKLEIKRADA
notes: mouse IgG3 / kappa; also called mu301-17
Consider B3, for which the dissociation constant (Kd) in experiment [3] is 26.9 nM; in experiment [2], 0.4 nM.

B4: Recombinant 301-17 IgG2a (murine IgG2a backbone) (antibody)
heavy: QVQLQQPGAELVKPGASVKMSCKASGYSFTSYWINWVKQRPGQGLEWIGDVHPGRGVSTYNAKFKSKATLTLDTSSSTAYMQLSSLTSEDSAVYYCSRSHGNTYWFFDVWGAGTTVTVSSAKTTAPSVYPLAPVCGDTTGSSVTLGCLVKGYFPEPVTLTWNSGSLSSGVHTFPAVLQSDLYTLSSSVTVTSSTWPSQSITCNVAHPASSTKVDKKIEPRGPTIKPCPPCKCPAPNLLGGPSVFIFPPKIKDVLMISLSPIVTCVVVDVSEDDPDVQISWFVNNVEVHTAQTQTHREDYNSTLRVVSALPIQHQDWMSGKEFKCKVNNKDLPAPIERTISKPKGSVRAPQVYVLPPPEEEMTKKQVTLTCMVTDFMPEDIYVEWTNNGKTELNYKNTEPVLDSDGSYFMYSKLRVEKKNWVERNSYSCSVVHEGLHNHHTTKSFSRTPGK
light: DVLMTQTPLSLPVSLGDQASISCRSSQSIVHSNGNTYLEWYLQKPGQSPKLLIYKVSNRFSGVPDRFSGSGSGTDFTLKISRVEAEDLGVYYCFQGSHVPFTFGSGTKLEIKRADAAPTVSIFPPSSEQLTSGGASVVCFLNNFYPKDINVKWKIDGSERQNGVLNSWTDQDSKDSTYSMSSTLTLTKDEYERHNSYTCEATHKTSTSPIVKSFNRNEC
B4: the dissociation constant (Kd) in experiment [4] was about 0.017 nM; in experiment [3], 16.2 to 19.5 nM.
